Measured values published in US20080305111A1 (VACCINEX, published 2008).

Key:
#5 (8454) = biological target: T1, #5 (8454); experiment: Western blot of partially Lys-C digested rhC35, MAb 163, goat anti-human-HRP, TMB
T1 construct: One member of the group m17; also called predicted partial Lys-C digest fragment #5 of rhC35; 8kDa N-terminal fragment
T1 N-terminal fragment of 6-His-tagged rhC35, from the N-terminus to the first Lys-C tick: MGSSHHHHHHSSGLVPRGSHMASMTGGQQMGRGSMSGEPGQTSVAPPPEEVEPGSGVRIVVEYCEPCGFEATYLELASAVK

[1] = biological target: T2, 6×His-tagged recombinant human C35 (human); experiment: SPR (Biacore), MAb 163 captured on goat anti-human IgG Fc on a CM5 chip, rC35 in solution, 1:1 kinetic model
T2 construct: Made in E. coli; also called rhC35; rC35

[2] = biological target: T3, C35 protein (recombinant, construct not stated) (human, UniProt Q9BRT3 1-115, limits assumed); experiment: ELISA on C35 or control protein A27L, secreted antibody from HeLa cells
T3 construct: also called recombinant C35 protein; control C35 protein
T3 sequence: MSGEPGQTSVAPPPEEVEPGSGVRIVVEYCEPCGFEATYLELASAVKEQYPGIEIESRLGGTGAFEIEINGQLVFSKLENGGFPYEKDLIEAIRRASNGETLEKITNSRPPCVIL

[3] = biological target: T3, C35 protein (recombinant, construct not …); experiment: ELISA and Western blot

B1: MAb 163 human anti-C35 monoclonal antibody (antibody, V domains shown)
VH: EVQLVESGGGLVKPGGSLRLSCEVSGITFSNAWMSWVRQAPGKGLEWVGRIKSKTDGGTTDYAAPVKGRFTISRDDSKNTLYLQMNSLKTEDTAVYYCSIGYYYDSSFKYGMDVWGQGTTVTVSS
VL: DIQMTQSPATLSASVGDRVTITCRASQSISRWLAWYQQKPGQAPKVLIYKASTLQSGVPSRFSGSGSGTEFSLTINSLQPDDFATYYCQQYYSYLRTFGQGTKLEIK
notes: Fully human antibody (clones H730 and L74), detected or captured with anti-human IgG reagents
B1 was tested, and the binding result (#5 (8454)) was “no binding”, the Ka [1] was 2.96e+08 M⁻¹ and the Kd [1] was 3.38 nM. For the same binder, the koff [1] was 0.000959 s⁻¹ and the kon [1] was 284000 M⁻¹ s⁻¹.

B2: MAb 165 (antibody, V domains shown)
VH: QVQLQESGPGLVKPPETLSLTCNVSGGSIGRYYWNWIRQSPGKGLEWIGHIHYSGSTIYHPSLKSRVSISLDTSKNQVSLKLSSVTAADTAVYYCARGAYYGGAFFPYFDVWGQGTTVTVSS
VL: DIQMTQSPSSLSASMGDRVTITCRASQGIRNHLAWYQQKPGKAPNLLISAASTLQSGVPTRFSGSGSGTDFTLTISSLQPEDSATYYCQQYNRYPLTFGQGTKLEIK
notes: also called 141D10 VH H732 with UH8 VK L120
B2: binds [2].

B3: 1B3 murine anti-C35 monoclonal antibody (antibody, V domains shown)
VH: EVQLQESGPSLVKPSQTLSLTCSVTGDSITSGYWNWIRKFPGNKLEYVGYISYSGGTYYNPSLKSRISITRDTSKNHYYLQLNSVTTEDTATYYCARGAYYGGAFFPYFDVWGAGTTVTVSS
VL: DVQITQSPSFLAASPGETITINCRASKYISKHLVWYQEKPGETKKLLIYSGSTLQSGLPSRFSGSGSGTDFTLTISSLEPEDFAMYYCQQHNEYPLTFGAGTKLELK
notes: also called hybridoma 1B3.6.1
B3: binds [3].
